# Laboratory results taken from the supplement of paper PMC11316812.
# ± gives the standard deviation of the averaged measurements.
# Legend:
# MCF7 = assay: percentage of EdU-negative (G0-arrested) nuclei per well, 72 h; higher = more G0 arrest; settings: reference: sequence is the full UniProt precursor, the tested protein was the secreted form or ectodomain
# hTERT-HMEC = assay: as above; settings: reference: sequence is the full UniProt precursor, the tested protein was the secreted form or ectodomain
# [1] = protein concentration 0.01075 µM
# [2] = protein concentration 0.1075 µM
# [3] = protein concentration 0.03125 µM
# [4] = protein concentration 0.3125 µM
# [5] = protein concentration 0.0357143 µM
# [6] = protein concentration 0.357143 µM
# [7] = protein concentration 0.0217725 µM
# [8] = protein concentration 0.217725 µM
# [9] = protein concentration 0.0225 µM
# [10] = protein concentration 0.02588 µM
# [11] = protein concentration 0.2588 µM
# 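Further: secreted proteins added to cultured cells, EdU pulse at the end, nuclei found by Hoechst imaging, EdU status from nuclear versus surrounding ring intensity ratio, PBS as neutral control.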
Sequence,percentage of EdU-negative (MCF7; [3]) [%],percentage of EdU-negative (MCF7; [4]) [%],percentage of EdU-negative (hTERT-HMEC; [3]) [%],percentage of EdU-negative (hTERT-HMEC; [4]) [%],percentage of EdU-negative (MCF7; [9]) [%],percentage of EdU-negative (MCF7; protein concentration 0.225 µM) [%],percentage of EdU-negative (hTERT-HMEC; [9]) [%],percentage of EdU-negative (hTERT-HMEC; protein concentration 0.225 µM) [%],other results
MEKMLAGCFLLILGQIVLLPAEARERSRGRSISRGRHARTHPQTALLESSCENKRADLVFIIDSSRSVNTHDYAKVKEFIVDILQFLDIGPDVTRVGLLQYGSTVKNEFSLKTFKRKSEVERAVKRMRHLSTGTMTGLAIQYALNIAFSEAEGARPLRENVPRVIMIVTDGRPQDSVAEVAAKARDTGILIFAIGVGQVDFNTLKSIGSEPHEDHVFLVANFSQIETLTSVFQKKLCTAHMCSTLEHNCAHFCINIPGSYVCRCKQGYILNSDQTTCRIQDLCAMEDHNCEQLCVNVPGSFVCQCYSGYALAEDGKRCVAVDYCASENHGCEHECVNADGSYLCQCHEGFALNPDKKTCTKIDYCASSNHGCQHECVNTDDSYSCHCLKGFTLNPDKKTCRRINYCALNKPGCEHECVNMEESYYCRCHRGYTLDPNGKTCSRVDHCAQQDHGCEQLCLNTEDSFVCQCSEGFLINEDLKTCSRVDYCLLSDHGCEYSCVNMDRSFACQCPEGHVLRSDGKTCAKLDSCALGDHGCEHSCVSSEDSFVCQCFEGYILREDGKTCRRKDVCQAIDHGCEHICVNSDDSYTCECLEGFRLAEDGKRCRRKDVCKSTHHGCEHICVNNGNSYICKCSEGFVLAEDGRRCKKCTEGPIDLVFVIDGSKSLGEENFEVVKQFVTGIIDSLTISPKAARVGLLQYSTQVHTEFTLRNFNSAKDMKKAVAHMKYMGKGSMTGLALKHMFERSFTQGEGARPLSTRVPRAAIVFTDGRAQDDVSEWASKAKANGITMYAVGVGKAIEEELQEIASEPTNKHLFYAEDFSTMDEISEKLKKGICEALEDSDGRQDSPAGELPKTVQQPTESEPVTINIQDLLSCSNFAVQHRYLFEEDNLLRSTQKLSHSTKPSGSPLEEKHDQCKCENLIMFQNLANEEVRKLTQRLEEMTQRMEALENRLRYR,,,,,,,,,percentage of EdU-negative (MCF7; [1]): 29.2 ± 1.9%; percentage of EdU-negative (MCF7; [2]): 24.3 ± 0.75%; percentage of EdU-negative (hTERT-HMEC; [1]): 5.94 ± 0.34%; percentage of EdU-negative (hTERT-HMEC; [2]): 6.49 ± 0.6%
MELQPPEASIAVVSIPRQLPGSHSEAGVQGLSAGDDSELGSHCVAQTGLELLASGDPLPSASQNAEMIETGSDCVTQAGLQLLASSDPPALASKNAEVTGTMSQDTEVDMKEVELNELEPEKQPMNAASGAAMSLAGAEKNGLVKIKVAEDEAEAAAAAKFTGLSKEELLKVAGSPGWVRTRWALLLLFWLGWLGMLAGAVVIIVRAPRCRELPAQKWWHTGALYRIGDLQAFQGHGAGNLAGLKGRLDYLSSLKVKGLVLGPIHKNQKDDVAQTDLLQIDPNFGSKEDFDSLLQSAKKKSIRVILDLTPNYRGENSWFSTQVDTVATKVKDALEFWLQAGVDGFQVRDIENLKDASSFLAEWQNITKGFSEDRLLIAGTNSSDLQQILSLLESNKDLLLTSSYLSDSGSTGEHTKSLVTQYLNATGNRWCSWSLSQARLLTSFLPAQLLRLYQLMLFTLPGTPVFSYGDEIGLDAAALPGQPMEAPVMLWDESSFPDIPGAVSANMTVKGQSEDPGSLLSLFRRLSDQRSKERSLLHGDFHAFSAGPGLFSYIRHWDQNERFLVVLNFGDVGLSAGLQASDLPASASLPAKADLLLSTQPGREEGSPLELERLKLEPHEGLLLRFPYAA,23.1 ± 0.58,27.1 ± 0.54,5.08 ± 0.89,8.07 ± 1.1,,,,,
MELRARGWWLLCAAAALVACARGDPASKSRSCGEVRQIYGAKGFSLSDVPQAEISGEHLRICPQGYTCCTSEMEENLANRSHAELETALRDSSRVLQAMLATQLRSFDDHFQHLLNDSERTLQATFPGAFGELYTQNARAFRDLYSELRLYYRGANLHLEETLAEFWARLLERLFKQLHPQLLLPDDYLDCLGKQAEALRPFGEAPRELRLRATRAFVAARSFVQGLGVASDVVRKVAQVPLGPECSRAVMKLVYCAHCLGVPGARPCPDYCRNVLKGCLANQADLDAEWRNLLDSMVLITDKFWGTSGVESVIGSVHTWLAEAINALQDNRDTLTAKVIQGCGNPKVNPQGPGPEEKRRRGKLAPRERPPSGTLEKLVSEAKAQLRDVQDFWISLPGTLCSEKMALSTASDDRCWNGMARGRYLPEVMGDGLANQINNPEVEVDITKPDMTIRQQIMQLKIMTNRLRSAYNGNDVDFQDASDDGSGSGSGDGCLDDLCSRKVSRKSSSSRTPLTHALPGLSEQEGQKTSAASCPQPPTFLLPLLLFLALTVARPRWR,27.5 ± 0.42,28.9 ± 2.8,4.85 ± 0.34,28.7 ± 1.6,,,,,
MELWGAYLLLCLFSLLTQVTTEPPTQKPKKIVNAKKDVVNTKMFEELKSRLDTLAQEVALLKEQQALQTVCLKGTKVHMKCFLAFTQTKTFHEASEDCISRGGTLGTPQTGSENDALYEYLRQSVGNEAEIWLGLNDMAAEGTWVDMTGARIAYKNWETEITAQPDGGKTENCAVLSGAANGKWFDKRCRDQLPYICQFGIV,,,,,,,,,percentage of EdU-negative (MCF7; [5]): 23.3 ± 2.7%; percentage of EdU-negative (MCF7; [6]): 26.7 ± 0.6%; percentage of EdU-negative (hTERT-HMEC; [5]): 5.64 ± 0.21%; percentage of EdU-negative (hTERT-HMEC; [6]): 25.4 ± 5%
MEMFQGLLLLLLLSMGGTWASREMLRPRCRPINATLAVEKEGCPVCITVNTTICAGYCPTMTRVLQGVLPALPQVVCNYRDVRFESIRLPGCPRGVNPVVSYAVALSCQCALCRRSTTDCGGPKDHPLTCDDPRFQASSSSKAPPPSLPSPSRLPGPSDTPILPQ,24.4 ± 2.5,25 ± 1,5.61 ± 0.69,5.26 ± 0.82,,,,,
MEMLQGLLLLLLLSMGGAWASREPLRPWCHPINAILAVEKEGCPVCITVNTTICAGYCPTMMRVLQAVLPPLPQVVCTYRDVRFESIRLPGCPRGVDPVVSFPVALSCRCGPCRRSTSDCGGPKDHPLTCDHPQLSGLLFL,25.1 ± 1.9,25.5 ± 0.84,5.24 ± 1,5.19 ± 1,,,,,
MENPSPAAALGKALCALLLATLGAAGQPLGGESICSARALAKYSITFTGKWSQTAFPKQYPLFRPPAQWSSLLGAAHSSDYSMWRKNQYVSNGLRDFAERGEAWALMKEIEAAGEALQSVHAVFSAPAVPSGTGQTSAELEVQRRHSLVSFVVRIVPSPDWFVGVDSLDLCDGDRWREQAALDLYPYDAGTDSGFTFSSPNFATIPQDTVTEITSSSPSHPANSFYYPRLKALPPIARVTLVRLRQSPRAFIPPAPVLPSRDNEIVDSASVPETPLDCEVSLWSSWGLCGGHCGRLGTKSRTRYVRVQPANNGSPCPELEEEAECVPDNCV [Q9BUD6],,,,,,,,,percentage of EdU-negative (MCF7; [7]): 23.8 ± 0.42%; percentage of EdU-negative (MCF7; [8]): 26.9 ± 1.5%; percentage of EdU-negative (hTERT-HMEC; [7]): 4.15 ± 0.79%; percentage of EdU-negative (hTERT-HMEC; [8]): 7.892 ± 0.078%
MEPAAALHFSLPASLLLLLLLLLLSLCALVSAQFTVVGPANPILAMVGENTTLRCHLSPEKNAEDMEVRWFRSQFSPAVFVYKGGRERTEEQMEEYRGRITFVSKDINRGSVALVIHNVTAQENGIYRCYFQEGRSYDEAILRLVVAGLGSKPLIEIKAQEDGSIWLECISGGWYPEPLTVWRDPYGEVVPALKEVSIADADGLFMVTTAVIIRDKYVRNVSCSVNNTLLGQEKETVIFIPESFMPSASPWMVALAVILTASPWMVSMTVILAVFIIFMAVSICCIKKLQREKKILSGEKKVEQEEKEIAQQLQEELRWRRTFLHAADVVLDPDTAHPELFLSEDRRSVRRGPYRQRVPDNPERFDSQPCVLGWESFASGKHYWEVEVENVMVWTVGVCRHSVERKGEVLLIPQNGFWTLEMFGNQYRALSSPERILPLKESLCRVGVFLDYEAGDVSFYNMRDRSHIYTCPRSAFTVPVRPFFRLGSDDSPIFICPALTGASGVMVPEEGLKLHRVGTHQSL [Q8WVV5],,,,,25.6 ± 3.6,27.8 ± 0.4,4.5399 ± 0.0037,8.99 ± 1.1,
MEPFTNDRLQLPRNMIENSMFEEEPDVVDLAKEPCLHPLEPDEVEYEPRGSRLLVRGLGEHEMEEDEEDYESSAKLLGMSFMNRSSGLRNSATGYRQSPDGACSVPSARTMVVCAFVIVVAVSVIMVIYLLPRCTFTKEGCHKKNQSIGLIQPFATNGKLFPWAQIRLPTAVVPLRYELSLHPNLTSMTFRGSVTISVQALQVTWNIILHSTGHNISRVTFMSAVSSQEKQAEILEYAYHGQIAIVAPEALLAGHNYTLKIEYSANISSSYYGFYGFSYTDESNEKKYFAATQFEPLAARSAFPCFDEPAFKATFIIKIIRDEQYTALSNMPKKSSVVLDDGLVQDEFSESVKMSTYLVAFIVGEMKNLSQDVNGTLVSIYAVPEKIGQVHYALETTVKLLEFFQNYFEIQYPLKKLDLVAIPDFEAGAMENWGLLTFREETLLYDSNTSSMADRKLVTKIIAHELAHQWFGNLVTMKWWNDLWLNEGFATFMEYFSLEKIFKELSSYEDFLDARFKTMKKDSLNSSHPISSSVQSSEQIEEMFDSLSYFKGSSLLLMLKTYLSEDVFQHAVVLYLHNHSYASIQSDDLWDSFNEVTNQTLDVKRMMKTWTLQKGFPLVTVQKKGKELFIQQERFFLNMKPEIQPSDTSYLWHIPLSYVTEGRNYSKYQSVSLLDKKSGVINLTEEVLWVKVNINMNGYYIVHYADDDWEALIHQLKINPYVLSDKDRANLINNIFELAGLGKVPLKRAFDLINYLGNENHTAPITEALFQTDLIYNLLEKLGYMDLASRLVTRVFKLLQNQIQQQTWTDEGTPSMRELRSALLEFACTHNLGNCSTTAMKLFDDWMASNGTQSLPTDVMTTVFKVGAKTDKGWSFLLGKYISIGSEAEKNKILEALASSEDVRKLYWLMKSSLNGDNFRTQKLSFIIRTVGRHFPGHLLAWDFVKENWNKLVQKFPLGSYTIQNIVAGSTYLFSTKTHLSEVQAFFENQSEATFRLRCVQEALEVIQLNIQWMEKNLKSLTWWL [Q9UIQ6],,,,,26.9 ± 1.8,29.26 ± 0.17,4.48 ± 0.24,11.1 ± 0.58,
MEPLRLLILLFVTELSGAHNTTVFQGVAGQSLQVSCPYDSMKHWGRRKAWCRQLGEKGPCQRVVSTHNLWLLSFLRRWNGSTAITDDTLGGTLTITLRNLQPHDAGLYQCQSLHGSEADTLRKVLVEVLADPLDHRDAGDLWFPGESESFEDAHVEHSISRSLLEGEIPFPPTSILLLLACIFLIKILAASALWAAAWHGQKPGTHPPSELDCGHDPGYQLQTLPGLRDT [Q9NZC2],,,,,23.6 ± 1.7,29.3 ± 2.9,5.63 ± 0.64,7.25 ± 1.5,
MEPPGDWGPPPWRSTPKTDVLRLVLYLTFLGAPCYAPALPSCKEDEYPVGSECCPKCSPGYRVKEACGELTGTVCEPCPPGTYIAHLNGLSKCLQCQMCDPAMGLRASRNCSRTENAVCGCSPGHFCIVQDGDHCAACRAYATSSPGQRVQKGGTESQDTLCQNCPPGTFSPNGTLEECQHQTKCSWLVTKAGAGTSSSHWVWWFLSGSLVIVIVCSTVGLIICVKRRKPRGDVVKVIVSVQRKRQEAEGEATVIEALQAPPDVTTVAVEETIPSFTGRSPNH [F6Q0M4],,,,,,,,,percentage of EdU-negative (MCF7; [10]): 25.05 ± 0.09%; percentage of EdU-negative (MCF7; [11]): 27.5 ± 1.3%; percentage of EdU-negative (hTERT-HMEC; [10]): 5.28 ± 1.9%; percentage of EdU-negative (hTERT-HMEC; [11]): 6.34 ± 0.056%
MEPQLGPEAAALRPGWLALLLWVSALSCSFSLPASSLSSLVPQVRTSYNFGRTFLGLDKCNACIGTSICKKFFKEEIRSDNWLASHLGLPPDSLLSYPANYSDDSKIWRPVEIFRLVSKYQNEISDRRICASASAPKTCSIERVLRKTERFQKWLQAKRLTPDLVQGLASPLLRCPSQRLLDRVVRRYAEVADAGSIFMDHFTDRDKLRLLYTLAVNSHPILLQIFPGAEGWPLPKYLGSCGRFLVSTSTRPLQEFYDAPPDQAADLAYQLLGVLESLRSNDLNYFFYFTHIDAGMFGVFNNGHLFIRDASAVGVIDKQEGSQEANRAGENKDIFSCLVSGCQAQLPSCESISEKQSLVLVCQKLLPRLLQGRFPSPVQDDIDSILVQCGDSIRPDPEVLGAASQLKDILRPLRTCDSRFAYRYPDCKYNDKF [Q9H7Y0],,,,,25.8 ± 2.1,25.3 ± 2,5.59 ± 0.064,5.31 ± 0.38,
